Laboratory results: article PMC5016126

Molecular target: FLAG-GLUT4 (GLUT4 tagged at the N and C termini with FLAG and His9, tags not cleaved) (UniProt P19357)
Assay: SDS-PAGE and Western blot; anti-FLAG immunoblot of purified FLAG-GLUT4 before and after TEV protease cleavage (0, 3 and 24 h) in LMNG detergent micelles or in 70% egg PC, 15% POPA, 15% POPE liposomes

stoichiometry N: 2
Substance: FLAG-GLUT4 (GLUT4 tagged at the N and C termini with FLAG and His9, tags not cleaved) (from UniProt P19357 1-509) (natural protein)
